± gives the standard deviation of the averaged measurements.
System: Saccharomyces cerevisiae
Assay: protein stability index of tFT-peptide fusion (C-terminal peptide) (PSI (0-1 scale)); higher = more stable (slower turnover)
Details: genetic background: das1 deletion; temperature: 37 C
Procedure: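 MPS profiling in S. cerevisiae of the tFT-X12 degron library: putative degron peptides plus stable controls, 12 aa, fused to the C-terminus of a sfGFP-mCherry timer. Cells are FACS-sorted into 8 mCherry/sfGFP bins and deep-sequenced. PSI runs from 0 (unstable) to 1 (stable). Backgrounds are wild type, das1Δ and doa10Δ at 30 °C, and wild type, das1Δ, cdc34-1 and cdc53-1 at 37 °C; 2-3 technical replicates each.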
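Note: PSI is a weighted mean of sequencing reads over stability bins, variants kept only with over 10 reads, mCherry proximal and sfGFP distal, peptide attached via GGGS linker.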

Sequence	protein stability index
VCVYLVSLPYLA	0.522 ± 0.021
VDFCLLFLLLLV	0.482 ± 0.032
VFCLPISAPPLH	0.727 ± 0.0031
VFCMVLPFVLLT	0.2715 ± 0.0011
VFFCVLRVFFSA	0.291 ± 0.0075
VFFIFFFAFLFF	0.41 ± 0.0072
VFFMFVFFPFPG	0.592 ± 0.03
VFGSRCLLTVVV	0.5185 ± 0.0017
VFGWWSVVLRVA	0.249 ± 0.0082
VFILGFLCLLFF	0.497 ± 0.077
VFIPFGFCLCFV	0.466 ± 0.0087
VFLCFSWHFFLF	0.559 ± 0.036
VFLVGFRVTLDS	0.404 ± 0.018
VFSFWVLCEVSV	0.0841 ± 0.013
VFVFTFSLSFYC	0.356 ± 0.019
VFVRDFLVSIVV	0.196 ± 0.0061
VFWVLVSFLFYV	0.4496 ± 0.0013
VFWVVFRALVGD	0.269 ± 0.02
VGAGVFAWLWVA	0.7101 ± 0.001
VGAYSVVYVVFS	0.5467 ± 0.00081
VGVLWALIVGVR	0.36 ± 0.0087
VGVYVWRGVLWA	0.444 ± 0.0077
VHHAFLPYTLVR	0.591 ± 0.017
VHNIDLFVVCYI	0.482 ± 0.0094
VIAFFSVLKRYV	0.712 ± 0.0078
VKSAVLLFFLVT	0.537 ± 0.0055

Sequence	protein stability index
VLFFLVTSSVYF	0.37 ± 0.0049
VLPCSLVPLRLH	0.702 ± 0.011
VLPLRCSWAAQG	0.747 ± 0.027
VMLIRVSRGIKC	0.4846 ± 0.0047
VMLVISRLLLLF	0.613 ± 0.018
VPGPSPPRFTQR	0.741 ± 0.0094
VPVWHTVKLYCF	0.4934 ± 0.0021
VPWSKIAARLII	0.734 ± 0.022
VRMMYSVQVWCG	0.165 ± 0.012
VRVWLLACASKG	0.378 ± 0.019
VSDLYLSLVRVV	0.604 ± 0.009
VSGVLRSMVRLQ	0.736 ± 0.032
VSRAVCLWRRLL	0.7305 ± 0.0018
VSSFLLPFCLLF	0.714 ± 0.025
VSWSVSALIYLK	0.319 ± 0.014
VTLLCRFFMLVF	0.543 ± 0.01
VVGFVFSCWWSW	0.506 ± 0.013
VVGVLLLYLNPF	0.572 ± 0.023
VVLWWWVVARDL	0.551 ± 0.031
VVRLRVWRLLKV	0.42491 ± 4.8e-05
VVRSIVVYTCVF	0.4241 ± 0.0025
VVRVIWCQFSCF	0.595 ± 0.017
VVTLHISLFYPG	0.5 ± 0.0056
VVVRARVFFHIF	0.538 ± 0.006
VVWLFGVSWCWL	0.525 ± 0.006
VWACWCGWVLLM	0.4667 ± 0.0039

Sequence	protein stability index
VWLFCLSRLYLL	0.4939 ± 0.0043
VYCQRFMLLFTP	0.581 ± 0.021
VYGSLPVVVCRI	0.56 ± 0.016
VYIVLLLLFLRP	0.407 ± 0.021
VYLVLRCGSVLV	0.597 ± 0.011
VYVLVFNMENIS	0.616 ± 0.011
VYVSRTRPFSLY	0.728 ± 0.022
WACAWRGMVKVG	0.38 ± 0.0041
WAIVVLVCFLRL	0.388 ± 0.017
WCCCVSGFVWWM	0.633 ± 0.021
WCGSWGVWMRLG	0.646 ± 0.02
WEPILLELELCV	0.487 ± 0.023
WFLLILFSAFAV	0.501 ± 0.0097
WFSVIMLCYILP	0.3397 ± 0.0018
WFVCSGVYGSVM	0.758 ± 0.035
WFVFVFCSPRSS	0.65 ± 0.027
WGFSVRFVLSVF	0.2407 ± 0.0016
WGVVMVCVVFGL	0.312 ± 0.0044
WHFMVFFCFCVD	0.406 ± 0.0098
WILPASFCVVFL	0.5556 ± 0.005
WLALSFFSFFFC	0.6825 ± 0.0042
WLFRASSFNWVI	0.802 ± 0.025
WLFTSVTVFTFL	0.421 ± 0.021
WLSISNLVIACR	0.156 ± 0.013
WNSQGVFILAKC	0.5687 ± 0.0026
WRAFVFYHHFLD	0.699 ± 0.014

Same assay, conditions: genetic background: doa10 deletion; temperature: 30 C

Sequence	protein stability index
VCVYLVSLPYLA	0.239 ± 0.018
VDFCLLFLLLLV	0.425 ± 0.027
VFCLPISAPPLH	0.626 ± 0.02
VFCMVLPFVLLT	0.1776 ± 0.0015
VFFCVLRVFFSA	0.114 ± 0.013
VFFIFFFAFLFF	0.393 ± 0.01
VFFMFVFFPFPG	0.368 ± 0.014
VFGSRCLLTVVV	0.336 ± 0.018
VFGWWSVVLRVA	0.0577 ± 0.014
VFILGFLCLLFF	0.362 ± 0.045
VFIPFGFCLCFV	0.318 ± 0.015
VFLCFSWHFFLF	0.297 ± 0.0049
VFLVGFRVTLDS	0.189 ± 0.018
VFSFWVLCEVSV	0.0219 ± 0.0031
VFVFTFSLSFYC	0.257 ± 0.02
VFVRDFLVSIVV	0.139 ± 0.0096
VFWVLVSFLFYV	0.281 ± 0.014
VFWVVFRALVGD	0.222 ± 0.013
VGAGVFAWLWVA	0.128 ± 0.025
VGAYSVVYVVFS	0.272 ± 0.0067
VGVLWALIVGVR	0.159 ± 0.0094
VGVYVWRGVLWA	0.184 ± 0.0022
VHHAFLPYTLVR	0.361 ± 0.011
VHNIDLFVVCYI	0.222 ± 0.0048
VIAFFSVLKRYV	0.199 ± 0.0083
VKSAVLLFFLVT	0.178 ± 0.016

Sequence	protein stability index
VLFFLVTSSVYF	0.159 ± 0.0068
VLPCSLVPLRLH	0.349 ± 0.013
VLPLRCSWAAQG	0.246 ± 0.019
VMLIRVSRGIKC	0.242 ± 0.0097
VMLVISRLLLLF	0.111 ± 0.0019
VPGPSPPRFTQR	0.644 ± 0.028
VPVWHTVKLYCF	0.073 ± 0.00079
VPWSKIAARLII	0.227 ± 0.015
VRMMYSVQVWCG	0.02927 ± 0.00015
VRVWLLACASKG	0.228 ± 0.037
VSDLYLSLVRVV	0.256 ± 0.0031
VSGVLRSMVRLQ	0.266 ± 0.017
VSRAVCLWRRLL	0.0796 ± 0.0058
VSSFLLPFCLLF	0.654 ± 0.021
VSWSVSALIYLK	0.572 ± 0.01
VTLLCRFFMLVF	0.273 ± 0.014
VVGFVFSCWWSW	0.365 ± 0.015
VVGVLLLYLNPF	0.3188 ± 0.0024
VVLWWWVVARDL	0.332 ± 0.026
VVRLRVWRLLKV	0.101 ± 0.034
VVRSIVVYTCVF	0.219 ± 0.0039
VVRVIWCQFSCF	0.208 ± 0.0071
VVTLHISLFYPG	0.418 ± 0.06
VVVRARVFFHIF	0.0651 ± 0.0018
VVWLFGVSWCWL	0.313 ± 0.011
VWACWCGWVLLM	0.153 ± 0.0066

Sequence	protein stability index
VWLFCLSRLYLL	0.143 ± 0.015
VYCQRFMLLFTP	0.553 ± 0.011
VYGSLPVVVCRI	0.4 ± 0.022
VYIVLLLLFLRP	0.3194 ± 0.003
VYLVLRCGSVLV	0.379 ± 0.018
VYVLVFNMENIS	0.382 ± 0.0068
VYVSRTRPFSLY	0.33 ± 0.0094
WACAWRGMVKVG	0.0812 ± 0.0095
WAIVVLVCFLRL	0.332 ± 0.024
WCCCVSGFVWWM	0.458 ± 0.011
WCGSWGVWMRLG	0.0974 ± 0.008
WEPILLELELCV	0.327 ± 0.021
WFLLILFSAFAV	0.314 ± 0.0041
WFSVIMLCYILP	0.233 ± 0.027
WFVCSGVYGSVM	0.6528 ± 0.0019
WFVFVFCSPRSS	0.394 ± 0.012
WGFSVRFVLSVF	0.05 ± 0.014
WGVVMVCVVFGL	0.159 ± 0.011
WHFMVFFCFCVD	0.28 ± 0.0047
WILPASFCVVFL	0.425 ± 0.019
WLALSFFSFFFC	0.577 ± 0.047
WLFRASSFNWVI	0.0843 ± 0.016
WLFTSVTVFTFL	0.181 ± 0.0045
WLSISNLVIACR	0.0862 ± 0.019
WNSQGVFILAKC	0.334 ± 0.021
WRAFVFYHHFLD	0.329 ± 0.029

— the supplement of paper PMC10724198
